Results on 112 variants are retold here after paper PMC11969024 (2025).

B1: peptide HD2 (from tick evasin EVA4) / CCL17 (biotinylated, synthetic) (parent complex)
chain 1: EEDDYTAYAPLTCYFT
chain 2: ARGTNVGRECCLEYFKGAIPLRKLKTWYQTSEDCSRDAIVFVTVQGRAICSDPNNKRVKNAVKYLQSLERS

In the test the parent is B1.
With chain 1 EEDDYTAYSPLTCYFT [chain 1 A9S], the enrichment was -0.697 log2 (difference from the parental peptide). As to chain 1 EEDDYTAYRPLTCYFT [chain 1 A9R], the enrichment is -4.45 log2 (difference from the parental peptide). Under chain 1 EEDDYTAYTPLTCYFT [chain 1 A9T] stands -4.51 log2 (difference from the parental peptide); under chain 1 EEDDYTAYQPLTCYFT [chain 1 A9Q], -1.77 log2 (difference from the parental peptide); under chain 1 EEDDYTAYNPLTCYFT [chain 1 A9N], -4.52 log2 (difference from the parental peptide). For chain 1 EEDDYTAYLPLTCYFT [chain 1 A9L], the enrichment was -7.01 log2 (difference from the parental peptide).

For chain 1 EEDDYTAYVPLTCYFT [chain 1 A9V], the enrichment is -9.17 log2 (difference from the parental peptide).

For the variant chain 1 EEDDYTAYAPLTCMFT [chain 1 Y14M], the enrichment was -4.32 log2 (difference from the parental peptide). With chain 1 EEDDYTAYAPLTCCFT [chain 1 Y14C], the enrichment was -7.42 log2 (difference from the parental peptide). For the variant chain 1 EEDDYTAYAPLTCAFT [chain 1 Y14A], the enrichment is -6.44 log2 (difference from the parental peptide). With chain 1 EEDDYTAYAPLTCPFT [chain 1 Y14P], the enrichment is -7.37 log2 (difference from the parental peptide). Under chain 1 EEDDYKAYAPLTCYFT [chain 1 T6K] stands 0.208 log2 (difference from the parental peptide). Under chain 1 EEDDYNAYAPLTCYFT [chain 1 T6N] stands 0.737 log2 (difference from the parental peptide).

With chain 1 EEDDYGAYAPLTCYFT [chain 1 T6G], the enrichment was 2.24 log2 (difference from the parental peptide). Under chain 1 EEDDYSAYAPLTCYFT [chain 1 T6S] stands 2.6 log2 (difference from the parental peptide). With chain 1 EEDDYMAYAPLTCYFT [chain 1 T6M] the figure was -0.648 log2 (difference from the parental peptide); with chain 1 EEEDYTAYAPLTCYFT [chain 1 D3E], 0.618 log2 (difference from the parental peptide).

As to chain 1 EEHDYTAYAPLTCYFT [chain 1 D3H], the enrichment was -2.9 log2 (difference from the parental peptide).

Consider chain 1 EEADYTAYAPLTCYFT [chain 1 D3A], for which the enrichment is -2.38 log2 (difference from the parental peptide).

Regarding chain 1 EERDYTAYAPLTCYFT [chain 1 D3R], the enrichment was -5.97 log2 (difference from the parental peptide).

As to chain 1 EEWDYTAYAPLTCYFT [chain 1 D3W], the enrichment is -4.02 log2 (difference from the parental peptide). With chain 1 EEYDYTAYAPLTCYFT [chain 1 D3Y] the figure was -3.2 log2 (difference from the parental peptide). Under chain 1 EEMDYTAYAPLTCYFT [chain 1 D3M] stands -4.48 log2 (difference from the parental peptide). With chain 1 EEQDYTAYAPLTCYFT [chain 1 D3Q] the figure was -1.63 log2 (difference from the parental peptide). Regarding chain 1 EESDYTAYAPLTCYFT [chain 1 D3S], the enrichment was -2.79 log2 (difference from the parental peptide).

On to chain 1 EEDDYTAYAQLTCYFT [chain 1 P10Q], for which the enrichment is -4.91 log2 (difference from the parental peptide). Under chain 1 EEDDYTAYADLTCYFT [chain 1 P10D] stands -8.51 log2 (difference from the parental peptide); under chain 1 EEDDYTAYAALTCYFT [chain 1 P10A], -8.82 log2 (difference from the parental peptide). Under chain 1 EEDDYTAYATLTCYFT [chain 1 P10T] stands -7.97 log2 (difference from the parental peptide); under chain 1 EEDDYTAYALLTCYFT [chain 1 P10L], -8.28 log2 (difference from the parental peptide); under chain 1 EEDDYTAYAFLTCYFT [chain 1 P10F], -7.51 log2 (difference from the parental peptide).

On to chain 1 ESDDYTAYAPLTCYFT [chain 1 E2S], for which the enrichment was -1.29 log2 (difference from the parental peptide). With chain 1 EWDDYTAYAPLTCYFT [chain 1 E2W] the figure was -2.45 log2 (difference from the parental peptide); with chain 1 EDDDYTAYAPLTCYFT [chain 1 E2D], 1.45 log2 (difference from the parental peptide). Turning to chain 1 ECDDYTAYAPLTCYFT [chain 1 E2C], the enrichment is -10.1 log2 (difference from the parental peptide). chain 1 ETDDYTAYAPLTCYFT [chain 1 E2T]: the enrichment is -2.14 log2 (difference from the parental peptide). Under chain 1 EPDDYTAYAPLTCYFT [chain 1 E2P] stands -2.4 log2 (difference from the parental peptide); under chain 1 EEDDYTAYAPLTIYFT [chain 1 C13I], -2.82 log2 (difference from the parental peptide); under chain 1 EEDDYTAYAPLTFYFT [chain 1 C13F], -5.92 log2 (difference from the parental peptide). Under chain 1 EEDDYTAYAPLTEYFT [chain 1 C13E] stands -7.45 log2 (difference from the parental peptide). With chain 1 EEDDYTAYAPLTVYFT [chain 1 C13V] the figure was -2.69 log2 (difference from the parental peptide). Take chain 1 EEDDYTAYAPRTCYFT [chain 1 L11R]: the enrichment was 3.2 log2 (difference from the parental peptide).

Consider chain 1 EEDDYTAYAPPTCYFT [chain 1 L11P], for which the enrichment was -5.62 log2 (difference from the parental peptide). Under chain 1 EEDDYTAYAPSTCYFT [chain 1 L11S] stands -0.205 log2 (difference from the parental peptide). With chain 1 EEDDYTAYAPATCYFT [chain 1 L11A] the figure was -1.12 log2 (difference from the parental peptide); with chain 1 EEDDYTAYAPHTCYFT [chain 1 L11H], 2.36 log2 (difference from the parental peptide); with chain 1 EEDDYTAYAPFTCYFT [chain 1 L11F], -0.993 log2 (difference from the parental peptide). Turning to chain 1 EEDTYTAYAPLTCYFT [chain 1 D4T], the enrichment is -5.39 log2 (difference from the parental peptide). With chain 1 EEDWYTAYAPLTCYFT [chain 1 D4W] the figure was -7.69 log2 (difference from the parental peptide); with chain 1 EEDKYTAYAPLTCYFT [chain 1 D4K], -4.98 log2 (difference from the parental peptide). As to chain 1 EEDFYTAYAPLTCYFT [chain 1 D4F], the enrichment is -6.96 log2 (difference from the parental peptide). Under chain 1 EEDAYTAYAPLTCYFT [chain 1 D4A] stands -3.66 log2 (difference from the parental peptide); under chain 1 EEDEYTAYAPLTCYFT [chain 1 D4E], -0.373 log2 (difference from the parental peptide).

In the case of chain 1 EEDHYTAYAPLTCYFT [chain 1 D4H], the enrichment is -6.29 log2 (difference from the parental peptide). Under chain 1 EEDVYTAYAPLTCYFT [chain 1 D4V] stands -7.15 log2 (difference from the parental peptide); under chain 1 EEDQYTAYAPLTCYFT [chain 1 D4Q], -3.42 log2 (difference from the parental peptide). In the case of chain 1 EEDYYTAYAPLTCYFT [chain 1 D4Y], the enrichment was -5.69 log2 (difference from the parental peptide).

For chain 1 EEDDYTAYAPLNCYFT [chain 1 T12N], the enrichment was -3.22 log2 (difference from the parental peptide). With chain 1 EEDDYTAYAPLICYFT [chain 1 T12I] the figure was 0.0487 log2 (difference from the parental peptide); with chain 1 EEDDYTAYAPLHCYFT [chain 1 T12H], -2.06 log2 (difference from the parental peptide); with chain 1 EEDDYTAYAPLECYFT [chain 1 T12E], -5.73 log2 (difference from the parental peptide).

Regarding chain 1 EEDDYTAYAPLVCYFT [chain 1 T12V], the enrichment was -0.896 log2 (difference from the parental peptide). With chain 1 EEDDYTAYAPLCCYFT [chain 1 T12C] the figure was -3.34 log2 (difference from the parental peptide); with chain 1 EEDDYTAYAPLQCYFT [chain 1 T12Q], -1.6 log2 (difference from the parental peptide). With chain 1 PEDDYTAYAPLTCYFT [chain 1 E1P] the figure was -1.24 log2 (difference from the parental peptide); with chain 1 YEDDYTAYAPLTCYFT [chain 1 E1Y], -0.248 log2 (difference from the parental peptide).

For chain 1 LEDDYTAYAPLTCYFT [chain 1 E1L], the enrichment was -0.975 log2 (difference from the parental peptide). On to chain 1 FEDDYTAYAPLTCYFT [chain 1 E1F], for which the enrichment was -1.75 log2 (difference from the parental peptide). With chain 1 NEDDYTAYAPLTCYFT [chain 1 E1N] the figure was 0.681 log2 (difference from the parental peptide). With chain 1 TEDDYTAYAPLTCYFT [chain 1 E1T] the figure was -0.325 log2 (difference from the parental peptide); with chain 1 KEDDYTAYAPLTCYFT [chain 1 E1K], -0.679 log2 (difference from the parental peptide). Under chain 1 IEDDYTAYAPLTCYFT [chain 1 E1I] stands -0.523 log2 (difference from the parental peptide); under chain 1 WEDDYTAYAPLTCYFT [chain 1 E1W], -2.36 log2 (difference from the parental peptide); under chain 1 QEDDYTAYAPLTCYFT [chain 1 E1Q], 0.156 log2 (difference from the parental peptide). With chain 1 GEDDYTAYAPLTCYFT [chain 1 E1G], the enrichment is 0.607 log2 (difference from the parental peptide). With chain 1 EEDDYTAYAPLTCYFY [chain 1 T16Y] the figure was -0.84 log2 (difference from the parental peptide); with chain 1 EEDDYTAYAPLTCYFS [chain 1 T16S], 0.663 log2 (difference from the parental peptide); with chain 1 EEDDYTAYAPLTCYFI [chain 1 T16I], -0.321 log2 (difference from the parental peptide). Under chain 1 EEDDYTAYAPLTCYFG [chain 1 T16G] stands 0.943 log2 (difference from the parental peptide); under chain 1 EEDDYTAYAPLTCYFR [chain 1 T16R], -1.43 log2 (difference from the parental peptide). Under chain 1 EEDDYTAYAPLTCYFM [chain 1 T16M] stands 0.118 log2 (difference from the parental peptide). Regarding chain 1 EEDDYTAYAPLTCYFQ [chain 1 T16Q], the enrichment is 1.17 log2 (difference from the parental peptide). Under chain 1 EEDDYTAYAPLTCYFF [chain 1 T16F] stands -0.625 log2 (difference from the parental peptide). As for chain 1 EEDDYTAYAPLTCYFE [chain 1 T16E], the enrichment is 1.12 log2 (difference from the parental peptide). As to chain 1 EEDDYTAYAPLTCYFA [chain 1 T16A], the enrichment is 1.13 log2 (difference from the parental peptide).

Consider chain 1 EEDDYTAYAPLTCYFN [chain 1 T16N], for which the enrichment was 0.157 log2 (difference from the parental peptide). chain 1 EEDDYTAYAPLTCYFW [chain 1 T16W]: the enrichment was -1.23 log2 (difference from the parental peptide). Under chain 1 EEDDYTAYAPLTCYFC [chain 1 T16C] stands -5.46 log2 (difference from the parental peptide); under chain 1 EEDDYTAFAPLTCYFT [chain 1 Y8F], 0.399 log2 (difference from the parental peptide). Under chain 1 EEDDYTAWAPLTCYFT [chain 1 Y8W] stands -3.5 log2 (difference from the parental peptide); under chain 1 EEDDYTASAPLTCYFT [chain 1 Y8S], -8.85 log2 (difference from the parental peptide). Take chain 1 EEDDYTAHAPLTCYFT [chain 1 Y8H]: the enrichment is -5.35 log2 (difference from the parental peptide). Under chain 1 EEDDYTAYAPLTCYVT [chain 1 F15V] stands 1.08 log2 (difference from the parental peptide). Turning to chain 1 EEDDYTAYAPLTCYQT [chain 1 F15Q], the enrichment is -0.329 log2 (difference from the parental peptide). Under chain 1 EEDDYTAYAPLTCYGT [chain 1 F15G] stands -3.49 log2 (difference from the parental peptide); under chain 1 EEDDYTAYAPLTCYCT [chain 1 F15C], -5.94 log2 (difference from the parental peptide); under chain 1 EEDDYTAYAPLTCYIT [chain 1 F15I], 0.435 log2 (difference from the parental peptide). With chain 1 EEDDYTAYAPLTCYMT [chain 1 F15M] the figure was 0.0931 log2 (difference from the parental peptide). With chain 1 EEDDVTAYAPLTCYFT [chain 1 Y5V] the figure was -6.56 log2 (difference from the parental peptide); with chain 1 EEDDMTAYAPLTCYFT [chain 1 Y5M], -3.16 log2 (difference from the parental peptide); with chain 1 EEDDPTAYAPLTCYFT [chain 1 Y5P], -4.51 log2 (difference from the parental peptide).

With chain 1 EEDDHTAYAPLTCYFT [chain 1 Y5H], the enrichment is -5.84 log2 (difference from the parental peptide). Under chain 1 EEDDATAYAPLTCYFT [chain 1 Y5A] stands -5.17 log2 (difference from the parental peptide).

For chain 1 EEDDFTAYAPLTCYFT [chain 1 Y5F], the enrichment was -2.8 log2 (difference from the parental peptide).

As to chain 1 EEDDYTYYAPLTCYFT [chain 1 A7Y], the enrichment is -1.58 log2 (difference from the parental peptide). With chain 1 EEDDYTVYAPLTCYFT [chain 1 A7V] the figure was -4.48 log2 (difference from the parental peptide). Under chain 1 EEDDYTTYAPLTCYFT [chain 1 A7T] stands -1.52 log2 (difference from the parental peptide); under chain 1 EEDDYTNYAPLTCYFT [chain 1 A7N], 2.1 log2 (difference from the parental peptide). With chain 1 EEDDYTPYAPLTCYFT [chain 1 A7P] the figure was 1.3 log2 (difference from the parental peptide); with chain 1 EEDDYTQYAPLTCYFT [chain 1 A7Q], 1.91 log2 (difference from the parental peptide); with chain 1 EEDDYTHYAPLTCYFT [chain 1 A7H], 1.03 log2 (difference from the parental peptide). As for chain 1 EEDDYTSYAPLTCYFT [chain 1 A7S], the enrichment was 0.977 log2 (difference from the parental peptide).
